Data on 4 substances can be found in EP1682577B1.

Targets include CRHR1 (UniProt P34998); Melanocortin 5 receptor (UniProt P33032); Melanocortin 1 receptor (UniProt Q01726).
Test in all cases: cell-based or functional assay
Experiment [1] deals with Vasoactive Intestinal Peptide 1 receptor (UniProt P32241).
Sequence of Vasoactive Intestinal Peptide 1 receptor (P32241 31-457): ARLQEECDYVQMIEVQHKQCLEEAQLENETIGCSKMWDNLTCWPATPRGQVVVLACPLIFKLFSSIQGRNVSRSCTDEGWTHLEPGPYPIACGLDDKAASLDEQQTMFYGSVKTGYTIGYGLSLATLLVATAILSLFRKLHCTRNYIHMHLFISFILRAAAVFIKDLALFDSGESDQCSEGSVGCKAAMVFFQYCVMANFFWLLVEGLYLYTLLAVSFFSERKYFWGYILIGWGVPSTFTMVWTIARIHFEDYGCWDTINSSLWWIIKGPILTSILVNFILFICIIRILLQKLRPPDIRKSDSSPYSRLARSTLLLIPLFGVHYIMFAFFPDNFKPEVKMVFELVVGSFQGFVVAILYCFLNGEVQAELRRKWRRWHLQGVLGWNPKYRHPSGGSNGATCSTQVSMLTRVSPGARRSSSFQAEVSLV

Sequence of Melanocortin 1 receptor (Q01726 whole entry): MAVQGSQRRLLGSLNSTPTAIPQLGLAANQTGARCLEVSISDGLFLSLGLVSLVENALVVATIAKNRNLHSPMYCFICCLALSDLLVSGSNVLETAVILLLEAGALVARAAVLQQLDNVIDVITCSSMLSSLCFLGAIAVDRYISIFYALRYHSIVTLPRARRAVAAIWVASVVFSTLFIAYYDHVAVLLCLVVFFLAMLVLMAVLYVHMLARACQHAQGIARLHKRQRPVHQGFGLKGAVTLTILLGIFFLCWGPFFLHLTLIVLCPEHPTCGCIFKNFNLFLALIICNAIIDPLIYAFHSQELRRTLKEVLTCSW
Sequence of CRHR1 (P34998 24-415 limits assumed): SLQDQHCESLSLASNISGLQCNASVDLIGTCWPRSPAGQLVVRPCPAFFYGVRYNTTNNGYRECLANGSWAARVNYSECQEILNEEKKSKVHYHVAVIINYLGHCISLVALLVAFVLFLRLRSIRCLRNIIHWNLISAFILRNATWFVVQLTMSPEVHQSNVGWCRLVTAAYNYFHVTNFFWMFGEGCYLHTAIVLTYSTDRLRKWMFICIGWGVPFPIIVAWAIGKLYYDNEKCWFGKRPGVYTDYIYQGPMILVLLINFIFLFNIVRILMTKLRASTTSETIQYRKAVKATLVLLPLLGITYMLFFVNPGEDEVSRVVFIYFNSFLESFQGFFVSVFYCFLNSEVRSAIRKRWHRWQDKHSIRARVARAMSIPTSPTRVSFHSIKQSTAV
Sequence of Melanocortin 5 receptor (P33032 whole entry): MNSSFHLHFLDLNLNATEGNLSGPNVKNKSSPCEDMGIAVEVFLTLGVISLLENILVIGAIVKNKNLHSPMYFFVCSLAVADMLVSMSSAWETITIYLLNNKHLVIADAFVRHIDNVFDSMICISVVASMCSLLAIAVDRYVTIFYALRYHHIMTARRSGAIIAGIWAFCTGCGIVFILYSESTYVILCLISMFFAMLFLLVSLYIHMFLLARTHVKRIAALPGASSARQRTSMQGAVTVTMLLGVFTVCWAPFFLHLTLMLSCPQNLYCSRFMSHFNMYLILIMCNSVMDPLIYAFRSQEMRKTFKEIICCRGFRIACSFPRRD

As for “CRF (from UniProt P06850 154-194) (peptide)”, in the experiment with CRHR1, the EC50 of cell response (MDC dye) was 0.028 nM, the EC50 of cell response (NY & H30602) was 0.028 nM, the Fmax/ Fb (MDC dye) is 4.2 and the Fmax/ Fb (NY & H30602) was 4.3.

Take “VIP (from UniProt P01282 125-152) (peptide)”: in experiment [1], the EC50 of cell response (MDC dye) is 0.0024 nM, the EC50 of cell response (TB & H30602) came to 0.005 nM, the Fmax/ Fb (MDC dye) stood at 4.9 and the Fmax/ Fb (TB & H30602) was 5.

In the experiment with Melanocortin 5 receptor, “[Nle4-D-Phe7]α-MSH (from UniProt P01189 138-150) (peptide)” displayed an EC50 of cell response (MDC dye) of 2900 nM, an EC50 of cell response (NR& H30602) of 1300 nM, an EC50 of cell response (NY & H30602) of 950 nM and an Fmax/ Fb (MDC dye) of 3.6. In the experiment with Melanocortin 5 receptor, the Fmax/ Fb (NR& H30602) was 3.2 and the Fmax/ Fb (NY & H30602) came out at 3.4.

In the experiment with Melanocortin 1 receptor, “α-MSH (from UniProt P01189 138-150) (peptide)” had an EC50 of cell response (MDC dye) of 820 nM, an EC50 of cell response (TB & H30602) of 770 nM, an Fmax/ Fb (MDC dye) of 5 and an Fmax/ Fb (TB & H30602) of 5.1.
